{"source": "the DeepSol protein solubility set"}
{"experiment": "soluble on expression in E. coli; label from the status in PepcDB or PDB records"}
{"sequence": "MGSDKIHHHHHHVIEVIRQRVLPHYGLEGNAAKVSPLGNGHINDTFLVTWDEGSMVLQRLNTSVFQAPWTLVENAELISRHLGEKEGKDYELKVVSPKTTAEGDLGIDLGEAGFWRAIRYLKHSNSIDVVGSEAQAEQAARAFGHFARALCDFDATRIGDVIPKFHFLPGRLAALEQAAADNKAGRLDTCREWVDFALCQRGLLDELAALEPKLPLRVCHNDTKINNMLFDKRDDSAMAIIDLDTCMKGHLMYDFGDMVRTFTSPEAEDSTALDKVRVRPEIFAAICRGYLAELGDVLEAAERESLWLGARIMCLMIGVRFLTDYLNGDLYFHVHREGHNLDRAANQFTLYQSLLTQADRLKPCIF", "soluble on expression in E. coli": "not soluble"}
{"sequence": "MGSDKIHHHHHHMNKLINRISPETSENRILHAGFSIILMSEEITQTLSGLSSDMIIFILSGSITIYSTKEEKKTIGEQYMIFLRSFENYTYDITLGSKIIIFFFDSLTMNELPYYQHPYGILPQPISKWIELKIVEPLYGFLELVGQYLENNFLNYPLYELKRTELFYLLKKLYRKEELDYFFYLSSTHSAEFERLIAENYIKAKTVTDLAQMIGYGVNSFRMKFKKVFGIPAYEWLMQEKSKRLLVAIANSEDDFKNIIDEFDFSSHSHFYKFCKARFGYSPTELRKKLKSL", "soluble on expression in E. coli": "not soluble"}
{"sequence": "MDILKLSDFIGNTLIVSLTEDRILVGSLVAVDAQMNLLLDHVEERMGSSSRMMGLVSVPRRSVKTIMIDKPVLQELTANKVELMANIV", "soluble on expression in E. coli": "not soluble"}
{"sequence": "MSLGEKHHMVLNRDQGITTRFSPQQKRLQLSSPKPYLLFFFTASCGACKEAIPYLNAIEEQWGERFEVIGVLGGSRGIKSDLEFLKRHSIRFKVLSDPSSSDYLSRAVGGVMGVPLFFFFDETGAPKEHFLGLVPQRVLEEEVRSLLEGHHHHHH", "soluble on expression in E. coli": "soluble"}
{"sequence": "MAGFISNFFGVGDSDSQYEEPTEASQAAAPTESATNTRSTPKVVPMQGGKSVNSKIALFEPKIYSDVKEIATQLLKNQAVIINFDHVDDEMARRIVDFLTGTVFAINGEIERIGDEIFLCIPENYEVSGSTTSQFDTSKLLEHHHHHH", "soluble on expression in E. coli": "not soluble"}
{"sequence": "MAHHHHHHMDYYRLLADIGHTYLQLIPSTAHVEKVTGLAARYCIFTITHTQMLLHCLMLWKEARLGDGGGFIDYAKVRNLKICSGAAEHTAQSNADAHSSNEGKQKWRTIDRTASLLFTLQLLEANCRYYCLVFLANYCALLLRSYSCLTDQRKVNRVHANVVEHLDMVSRLVLDLAEEYPNEYLSRLIMANLPKPSNFDRECLSSMGASSHMGSQKILSFGNDQHRHLYASGYPWSPTQSALIPLILARTVRLTVQENVSRHSQAQLRSPAERLSYHYTRWHFNSGLVIVPGCSLYMLKKSLPGFVPGKSTFAHYATMAEHEELHVPRAAADVHWQRGSAAVPVPEDGGGAAPGSHRNPRKSEDSADAEKREALTKKCEERLIKKRRHINTDLHLSDERTCVALCLEEACALALPSLLLSCVLQKATREPHFREFMNNAMNLVLGLYGPASSEWHMMASFLRKHLEG", "soluble on expression in E. coli": "not soluble"}
{"sequence": "MHPMNILLKLPLKIPLMIIEKAREILEKHPLCNHCLGRMFAKLGKGTNEERGKAIRLILSMELNREVKEPENCELCQGIFRRMNELLDLVRNAVEDYEFQTFQIGSRFPKDILEKEKKIWEEFGITTGEPINREFNRELGKLFAKVTGKIPNRERPDIVIIVEPFSSKVELQVNPIYVAGRYRKLVRGIPQTPAPGFEESIATIICRVFKKNFRGKCIFKGAGREDVDVRTLGRGRPFVVEIKKPRKRKVDLKLIEEEINSSGKVEVLELKFITPEESEKILTARHKKIYEALVYVKDGVSAEEVEKVVKSLKGSEIKQRTPRRVLNSRADIVRVRRVYNVSGEYIDEHHFKLKLVTDGGLYIKELISGDKGRTKPSVSEILGKEAWCEILDVLDVLDGDENVEGDSLEHHHHHH", "soluble on expression in E. coli": "not soluble"}
{"sequence": "MMEQKQEIHATVSINNVQYEVIKNFRDGFSEEAFKERYAEILNKYDYIVGDWGYEQLRLRGFFDDSNQRATYDTKISTLTEYLYEYCNFGCAHFVLRKVKK", "soluble on expression in E. coli": "not soluble"}
{"sequence": "MDKDMQLIRGLHNANRVLQGCALTIGNFDGVHLGHQTVLRHLRQKADELNLPMAVLLFESQPREYFMGKNAPARLMRLRDKIYYLEKAKVDVVIVAKFDRTFAEQLADVFIEQTLVNHLHVKFLSIGDDFKFGSKRQGNFAMLQAASKRFGFIVEDNRSFCLDAQRISSTAIREALANDDLQLAENLLGKPYRIFGRVIHGNKLGRTIGFPTANIRLHRQVNPIKGVYAVKVRLKSGEIFNGVANMGKRPTINGLMQLLEVHLFDFSQNIYGQMVEVEFCHKIRNEIKFPSFDDLKVQIEKDVETAKAFFNSLEHHHHHH", "soluble on expression in E. coli": "not soluble"}
{"sequence": "MSLSQFKPTWMVKNIYDLTPAQLRANGIKVILTDLDNTLIAWNNPDGTPELRHWLTLLELAGIRVIVVSNNNRKRVDRAVAPFNLDYIHRALKPLSWGILRALRRWHLNRDEVVMVGDQLLTDVWAAHHSGVRSVLVKPILKSDAWVTKGNRLMEKVVMWRLRHNYPELTWQEDLDERKAHEGHHHHHH", "soluble on expression in E. coli": "soluble"}
{"sequence": "MRIHRRIKIKQKSVRIFIFDTKHRINDTKRQEDDEPHGLSALHFASRRPTCCACWMRRKKESTTTKVCVQDDCTTCSCTSASRCSRCSPCCSGCCSCTS", "soluble on expression in E. coli": "not soluble"}
{"sequence": "MSLQPHLICLDLDGTLLNDNKEISSYTKQVLNELQQRGHQIMIATGRPYRASQMYYHELNLTTPIVNFNGAYVHHPKDKNFKTCHEILDLGIAQNIIQGLQQYQVSNIIAEVKDYVFINNHDPRLFEGFSMGNPRIQTGNLLVHLKESPTSILIEAEESKIPEIKNMLTHFYADHIEHRRWGAPFPVIEIVKLGINKARGIEQVRQFLNIDRNNIIAFGDEDNDIEMIEYARHGVAMENGLQELKDVANNITFNNNEDGIGRYLNDFFNLNIRYYEGHHHHHH", "soluble on expression in E. coli": "soluble"}
{"sequence": "MATFMTEDFLLKNDIARTLYHKYAAPMPIYDFHCHLSPQEIADDRRFDNLGQIWLEGDHYKWRALRSAGVDESLITGKETSDYEKYMAWANTVPKTLGNPLYHWTHLELRRPFGITGTLFGPDTAESIWTQCNEKLATPAFSARGIMQQMNVRMVGTTDDPIDSLEYHRQIAADDSIDIEVAPSWRPDKVFKIELDGFVDYLRKLEAAADVSITRFDDLRQALTRRLDHFAACGCRASDHGIETLRFAPVPDDAQLDAILGKRLAGETLSELEIAQFTTAVLVWLGRQYAARGWVMQLHIGAIRNNNTRMFRLLGPDTGFDSIGDNNISWALSRLLDSMDVTNELPKTILYCLNPRDNEVLATMIGNFQGPGIAGKVQFGSGWWFNDQKDGMLRQLEQLSQMGLLSQFVGMLTDSRSFLSYTRHEYFRRILCNLLGQWAQDGEIPDDEAMLSRMVQDICFNNAQRYFTIK", "soluble on expression in E. coli": "not soluble"}
{"sequence": "MFPKNAWYVACTPDELAGKPLGRRICDEPMVFYRGEDGRVAALEDFCPHRGAPLSLGFVEDGVLVCGYHGLAMGEDGRTRAMPGQRVRGFPCIRRFPVQERHGFVWVWPGAEEQADDALIPRLEWAESPDWAYGGGLYHIHCDYRLMIDNLMDLTHETYVHASSIGQKEIDEAAPTTRVEGDEVITSRHMQNVMAPPFWRMALRGNGLADDVAVDRWQICRFTPPSHVLIEVGVAHAGHGGYQAPAERKAASIVVDFITPESATSIWYFWGMARNFQAHDQALTESIREGQGKIFGEDLEMLESQQRNLLRHPRRDLLKLNIDAGGVQARRIIERLLADER", "soluble on expression in E. coli": "not soluble"}
{"sequence": "MSEVNIVVNGREAGSKSKGCALCGATWGDYHADFLGEDLFFCCDICAAEFMNMMDEAFKHTARHNVDELHIDGNYQLGRNVLLKNGEDRLRFYVKFGPGAVIKEFKITD", "soluble on expression in E. coli": "soluble"}
{"sequence": "APKNGTVQEKKFFSKELNEEMTLLVYLPSNYSPLYKYHVIIAQDGHDYFRLGRIGRQVEELLSKREIDRSIIIGVPYKDVKERRNTYHPEGSKFSAYKRFIAHELVPFADDEYPTYQIGYGRTLIGDSLGATVSLMTALDYPNMFGNIIMQSPYVDKHVLEAVKQSDDIKHLSIYHQIGTKETDVHTTDGNILDFTEPNRELKQLLEKKLSDYDFEPFDGDHKWTYWQPLITPALKKML", "soluble on expression in E. coli": "not soluble"}
{"sequence": "MLNEGAKNTEKQKVMEIITVAEPMSESELESIRNFLFRIIRREFGFGYIPEYHRDIINLEEYYLKPPRNIFLFASQGGRVIGTLGLRAYDREFEGLNYDPETTASLWRVFVDEDHRRMGVASRLVEIAEKEAASLGYQRIYLHTHKYVGGALEFWLSRGYRVTVDTGNELGTVHMEKTLSCNSNAITRIPEKTSELSHSLPRTQKV", "soluble on expression in E. coli": "soluble"}
{"sequence": "MNKEITFDKLPEAVTYLTEQVSAIKEMVSALHPPVPEEKSLIGIDEACVIIQKAKPTIYALVRKGIVPAYKRGKKLYFYKEELLQWVESGRKGATTAISSEEQLAMMRQEVRRKPKSIK", "soluble on expression in E. coli": "not soluble"}
{"sequence": "MSNSTEPALAIITVTYSPGKHLGAFLSSVKEATAQPTYVVLADNGSVDGVPEAAAQADPSVEFFPTGGNIGYGSAINAAVRKLAPLRESGKINAEFFVLSNPDVVFEPGSIDAMVQCASRHPQAADIGPYIRQSDGSAYPSARQVPTIKNGVGHALFSSVWPSNPWSRAYRDNRDMTTERTAGWLSGSCLLVRWDAFEQIGGFDERYFMYMEDVDLGDRFGRAGFDNVFCPDAVITHAVGHAAGKHPEKMLPAHHDSAYRFQADRHPGLRYLPLRVLLRVGLKLRAVVAVAAAKFKLEHHHHHH", "soluble on expression in E. coli": "soluble"}
{"sequence": "MMIFRFVTTLAASLPLLTFAAPISFSHAKNEAVKIYRDHPVSFYCGCEIRWQGKKGIPDLESCGYQVRKQENRASRIEWEHVVPAWQFGHQLQCWQQGGRKNCTRTSPEFNQMEADLHNLTPAIGEVNGNRSNFSFSQWNGIDGVTYGQCEMQVNFKERTAMPPERARGAIARTYLYMSEQYGLRLSKAQNQLMQAWNNQYPVSEWECVRDQKIEKVQGNSNRFVREQCPN", "soluble on expression in E. coli": "soluble"}
{"sequence": "MFPIHYQFSIIHYPLKKEMKLNLKNPIVFFDLETTGTNINTDRIVEICYLKVYPNGNEETKTMRINPEMHIPEASSAVHGIYDADVADCPTFKEVAKNVARDIEGCDLAGFNSNRFDIPVLAEEFLRAGVDIDMTKRKFVDVQVIFHKMEQRTLSAAYKFYCEKSLEDAHTAEADTRATYEVLKAQLDRYPDLQNDIAFLAEYSSFTKNVDFAGRMVYDDNGVEVFNFGKYKGMSVAEVLKKDPGYYSWILNSDFTLNTKAVLTKIRLREMSNLITK", "soluble on expression in E. coli": "soluble"}
{"sequence": "MCMDLESLLAIKHFRADQAQLALKRQQQAAVAAAAQRQAQGRLDDCRLWAGQLENRLYAELCRRIVKTRDIDEVLQRVGHARDRQASLALQLDDAVRRHEHEIQLLAQQREQHRECFQAQQRIAELVRLQQVEAAALRESLEDREIQEAIELSARGRDDASRAGDGLARLLEHHHHHH", "soluble on expression in E. coli": "not soluble"}
{"sequence": "MGSTKSRPLRDANGTPKFRHESIACVFRVHPQQGVDVLTVIRSRPPYADMSALPSGALETNEMLKDACLRHLSLSGVHPSMVSHIEQLDTRSAIDRDPYDRTIATAHLCLIPWDIDPSVTNGSFTPLVDLDELAFDHKNIIEQGLYRLRAKLSYSNIGFALAPRLFTISDLAKTYSHVLTYNVSPTNLQRILTRRNQLQPTTARAIGSGRPARLFTFTTDRLEITDPFATLKPTESRKCKS", "soluble on expression in E. coli": "not soluble"}
